Assay: soluble on expression in E. coli; label from the status in PepcDB or PDB records

Sequence	soluble on expression in E. coli
MSLNFTLHTLNGIKLWLVLLLLSGAINVCRADSPRQTINFNRGWKYCQGDFDHAARPGFDDSEWEKIGLPHSFSTPYFMSKDFYVGYGWYRKAFPVKKEILGKKSFLEFDGVFQEAEIFVNGHLAGTHKGGYTGFSIDISAYLKEGKNLVAVRVNNCWRPDLAPRAGEHVFSGGIYRNVRLVIKPPTYIDWYGTWITTPDLAENKGKSGSVHIRTDVCNASGKTDTYRLLTTVVDAQGKEVSSVSTSQVLPDNATYTFEQQTKEIQAPQLWHPNHPALYKVISSLYHGQELIDRYETAFGFRWFEWTADRGFFLNGEHLYFKGANVHQDHAGWGDAVTETGMRRDIRLVKEAGFDLIRGSHYPHSPAFSQACDEIGMLFWAENAFWGIGGHKGDGYWNASAYPVNESDRAEFENSVKAQLKELIRIHRNHPSIIVWSMSNEPFFTAPETINPMRKLLEETVKLSKQLDPTRPAAVGGAQRPLGEKRIDKLGDIAGYNGDGSYIPEFQQPGMPTVVSEYGSTTADRPGEYDPGWGDLAKNNAQNGFPWRSGQAIWCAFDHGSIAGSALGKMGIIDYFRIPKRAWYWYRNAYKGITPPEWPQEGTPARISLVADRTDNIKADGTDDVMLSITILDASGKPVSNSPAVKLDILSGPGEFPTGTSILFEKESDIRILDGKAAIEFRSYYAGETVIRATSPGLEPAEVKIRFTGSTPYTEAFKVKERPYTRFETPTKTDNLQTFGPNNPTFCSSSANGHSSAFAADGDESTYWQASENDPERSWTLDTEKGLSIRHIRIAFPDLTPYQYKVEVSMDREHWSLIPDQTNNKQNENIRMIQVVPGIQGRFVRISFTGEKAAITDVQVIGTVIDEGHHHHHH	soluble
MSRPFTGATLCTTIAPHCSRTTAMTTLPAASPEALATSQALCGRISQAIAEAGGWIPFSHYMELALYAPGMGYYAAGSRKLGEDGDFVTAPELTPLFGQSLARQLAELLPQTAGAVYEFGAGTGKLAIDLLAELKALNQLPAKYVILDLSPDLIDRQRQNIRAALPHLADRVEWASSLPDAIDGIVIGNELLDAMPCEMVFRDEDRRLRQRGVTVRDGALCYEDRDFADSRLAELAAQLLPDIPRYETEISLANRAFIATVAGALTRGAILMIDYGHAASEYYHPERSMGTLLGHYRHHTVQDPFYLPGLMDLTCHVDFTAVAQSGIDAGLDLIGYTSQAQFLVNCGLIERLQTLDADDVKAYLPIAKAAQRLLSPQEMGETFKAIGFGKGVSIDWLGFARGDRCYTLLEHHHHHH	soluble
MGSDKIHHHHHHMSQQTGEASKIKGRFRNSHKVYGAGLGDLVGIIKAYLGAKRSAPSPKSAVPLQPITPAELARPQARLYRLGHSTVLMYLDGKWLLTDPVFSERASPFQWAGPKRFHQSPIAIEALPDIDGLILSHDHYDHLDTAAIKALAARVKHFYMPLGVGKRLIRLGIDKARITELDWWQSVQLGTIELTATPAQHFSGRGLFDRDATLWAGWAIHGEQARVFFSGDSGYFPGFAEIGERLGPFDVTLMETGAYNELWRDIHMMPEESLQAHLDVKGQLMVPIHNGTFDLALHDWFEPLERIRALAWDRSVKIATPIFGEALSLTLPGSGSDWWAQESAISTGVDAREKGRAPAAESSMVGIAES	not soluble
SDKVINPQVAWAQRSSTTDPERNYVLITVSIADCDAPELTIKPSYIELKAQSKPHVGDENVHHYQLHIDLYKEIIPEKTMHKVANGQHYFLKLYKKDLESEYWPRLTKEKVKYPYIKTDFDKWVDADEQDEVEA	soluble
MAQHPPYCRNQPGKCQIPLRDLFDRAVVLSHYIHNLSSEMFSEFDKRYTHGRGFITKAINSCHTSSLATPEDKEQAQQMNQKDFLSLIVSILRSWNEPLYHLVTEVRGMQEAPEAILSKAVEIEEQTKRLLEGMELIVSQVHPETKENEIYPVWSGLPSLQMADEESRLSAYYNLLHCLRRDSHKIDNYLKLLKCRIIHNNNC	soluble
MAHHHHHHMGELFSIKNLFICSNERSVEELRTAMEGLLKKERAEGAGGGEKEAKEETHPGGKKYEMIKDYLDANKNNVLHFAIYGNNMNNVKFIIENTNLINSINSEEQNGLIISVLNRNTQISKYLIEQNIDYNQKDKHKANALLYSLITQNYEIFNLLMEKKNIDINVNSFEKGNLLSVSIFERNIHVLKKLFNKFICPFVEGSVYPHPLLYITYSSDNELLFLYLTYCMYYCTKDDALYKINTANFDHSREEIYVDLDHRQVICSIWDNSTYDLSAFKDVLNMTDEDGTPLCSTCVNNGNSLGKNIFDYFSAPS	not soluble
MSLMRKNETREFLIEDIEFPAVGVAFYNDKKVYIKGAVPGQKVLARVSKVRREKIEAKLKEIVTNIPGAAQPKCPDFGVCGGCVHQFLPYEKQLEFKEREVLKLFKDAKIEGFEYLGILGSPEKEEYRNKMEYTFGDFVKGGELTLGMHAKDSGFSIVNTDKCNIVDEDFRIILKTVVEYFRKKDLPIYKVMQHVGYLRNLVVRKAKNTGEILIALVTTSQVDFDLTELTEILKSINYLGELKGILHVINDGLADMVRGDKIVTLFGQDYITERILDLKFKMSLFSFFQTNSKGAEKLYSEVLEFLGDVSNKTVFDLYCGTGTIGQLASKKAEKVIGIELIEEAVEAAKENTKLNNISNCSFIAGDVAKVITEIKEKPDTIILDPPRPGVSPNAMKYVIKFNAPEIVYVSCNPKTLVNDLGVLRAYGYEVEKVKIVDMFPGTGHVETVVLLQRKIIEGHHHHHH	soluble
MDLWKLYQPGTPAAIVAWGQLGTAHAKTTYGLLRHSRLFKPVCVVAEHEGKMASDFVKPVRYDVPVVSSVEKAKEMGAEVLIIGVSNPGGYLEEQIATLVKKALSLGMDVISGLHFKISQQTEFLKIAHENGTRIIDIRIPPLELDVLRGGIYRKKIKVVGVFGTDCVVGKRTTAVQLWERALEKGIKAGFLATGQTGILIGADAGYVIDAVPADFVSGVVEKAVLKLEKTGKEIVFVEGQGALRHPAYGQVTLGLLYGSNPDVVFLVHDPSRDHFESFPEIPKKPDFEEERRLIETLSNAKVIGGVSLNGGFETDLPVYDPFNTDDLDEMLERAMVW	not soluble
SNRHLCKECFKKDIERRAKKVLGKDIIRNNVKIGIGISGGKDSLVMAYILKELFKHIPNAKLICFFVDEGIKGFRNIAEKYVKEFCKEYNLDLKIIKFEDEIGYTLDEIVKNDYLSKLNIGKPCSFCGVVRRYLLNKHALKEGCDYLAIGHNLDDFCQTILMNYVEGNIKNIIQFGKEFEGGGFVKRIKPLKLIPEEEVKLYAEINNIKYQREPC	not soluble
MIQEYQLRILPEIAASEQQLKAYLSQEKGLNQRDITALRTLKRSIDARQRTIYVNLKVRVYLNEMPKDDEYEHTIYNNVEGKPQVIVVGAGPGGLFAALRLIELGLRPVVVERGKDVRERKKDLAQISREHRVDPESNYSFGEGGAGAYSDGKLYTRSKKRGNVDKILNVFCQHGASTAILVDAHPHIGTDKLPRVIENMRNTIIECGGEVHFKTRMDALIIEQGEVKGIETNTGETFLGPVILATGHSARDVYRWLAANNVTIEAKGIAVGVRLEHPAGLIDQIQYHNRSGRGKYLPAAEYSFVTQVDGRGVYSFCMCPGGFIVPAASGPEQVVVNGMSPSNRGSRWSNSGMVVEIQPEDIINDKRLTVNNEAEETFPELAVLHFQEELERQCWLQGGRRQTAPAQRMVDFTRKKLSYDLPESSYSPGLISSPLHFWMPEFIAGRLSQGFQQFGRSSHGFLTNEAVMIGVETRTSSPVRIVRDKDTLQHITLRGLFPCGEGAGYAGGIVSAGIDGERCAEAVAQFMNPLEHHHHHH	soluble
MIEERFDAIVVGAGMAGNAAALTMAKRGLKVLQIERGEYPGSKNVQGAILYADMLEKLVPDFREDAPLERHLVEQRFWMMDGKSHTGLHHRSEDFNEEKPNRYTIIRAQFDKWLSSKAQEAGAIVLCETTVKELVQDAYGKVIGVITDREGGQVHADVVVLAEGVNGLLGTKAELRERPTPENVALAVKEMHFLPRETIEARFNLKGDEGVVIEAAGTISAGMTGMGFIYTNKESISIGIGCLVSDFQKTGETPYGLLERFKKHPSVAPLIEGSEVKEYAGHLIPEGGYNAIPQLYGDGWVVVGDAAQLNNAMHREGSNLAMTSGRIAAEAIFQVKSRKDPMTKENLALYKKMLDDSFVIKDLKKYKDMPDLLHIRSQNFFLTYPQLVNKALQNFVRVDGTPKIEKEKTTIKSFVSARSWGGLFGDAFRFARAWR	not soluble

— the DeepSol protein solubility set
